A word on the stoichiometry N: it is the number of molecules, sites or subunits per partner or assembly.

These results are taken from PMC8571072.

Where “and” joins values, the source holds several entries; their conditions need not be identical. Equal entries are not always repeated.

In this assay the target is intelectin-2 (Xenopus laevis (endogenous in egg extract)). The assay is described as follows: cryo-EM structure.

Regarding intelectin-2 (natural protein), the stoichiometry N was 3 and 6.
